Experimental data: US11820973B2, “Methods and system for interfering with viability of bacteria and related compounds and compositions” (CALIFORNIA INSTITUTE OF TECHNOLOGY, priority 2011, dated 2023)

Assays:
[1] = tested on: P. aeruginosa; assay: Planktonic growth rates with iron chelators; assay type: cell-based, Pseudomonas aeruginosa
[2] = tested on: P. aeruginosa PA14 mature biofilms; assay: MBEC assay, dissolution of mature biofilms; assay type: cell-based, Pseudomonas aeruginosa; settings: conalbumin; mature biofilms; 24 h exposure
Protocol: (§1) In some examples, biofilm prevention and dissolution were measured via a high-throughput biofilm assay (MBEC Physiology and Genetics Assay) consisting of a 96-well plate into which a 96-peg plastic lid fits. This lid also fits over a standard 96-well plate, which was subsequently used to test the efficacy of iron chelators. Inoculum was prepared by diluting (30-fold) a 1.0 McFarland suspension of P. aeruginosa PA14 in TSB. 150 μl, was dispensed into each of the 60 inner wells, while 200 μl, of sterile trypticase soy broth (TSB) was placed in each perimeter well. For dissolution experiments, plates were incubated at 37° C. for 24 h, and were transferred to an anaerobic chamber for 24 h at 37° C. in anaerobic TSB containing 50 mM KNO3. Biofilms were then exposed to conalbumin and/or Ferrozine® for 24 h. Each treatment was complemented with the addition of 80 μM ferrous ammonium sulfate. After treatment, lids were rinsed once in 50 mM HEPES, air dried for 10 min and quantified by crystal violet staining. For biofilm prevention, anaerobic inoculum was amended with conalbumin and/or Ferrozine®. Media was replaced every 24 h by transferring the MBEC lid to a sterile plate containing growth media+/− treatments, and biofilms were allowed to develop for 168 h. Biomass was quantified as described above. Biological triplicates and six technical replicates (n=18) were used for each treatment.

[3] = tested on: P. aeruginosa PA14 biofilm; assay: MBEC assay, anaerobic biofilm prevention; assay type: cell-based, Pseudomonas aeruginosa; settings: 100 μM conalbumin, ˜10 μM Fe(II) and 10 μM Fe(III) present
Protocol: as §1

[4] = tested on: P. aeruginosa PA14 wild type; assay: Flow cell biofilm development, wild type, 1% TSB with or without conalbumin
[5] = Day 6, WT, 40 μg/ml conalbumin, 10 μM PCA or PYO

B1: conalbumin: Fe(III)-binding protein of the transferrin family, an Fe(III) chelator; substantially iron-free, from Sigma-Aldrich (protein, UniProt P02789 20-705, looked up)
Ovotransferrin: APPKSVIRWCTISSPEEKKCNNLRDLTQQERISLTCVQKATYLDCIKAIANNEADAISLDGGQAFEAGLAPYKLKPIAAEVYEHTEGSTTSYYAVAVVKKGTEFTVNDLQGKTSCHTGLGRSAGWNIPIGTLLHRGAIEWEGIESGSVEQAVAKFFSASCVPGATIEQKLCRQCKGDPKTKCARNAPYSGYSGAFHCLKDGKGDVAFVKHTTVNENAPDQKDEYELLCLDGSRQPVDNYKTCNWARVAAHAVVARDDNKVEDIWSFLSKAQSDFGVDTKSDFHLFGPPGKKDPVLKDLLFKDSAIMLKRVPSLMDSQLYLGFEYYSAIQSMRKDQLTPSPRENRIQWCAVGKDEKSKCDRWSVVSNGDVECTVVDETKDCIIKIMKGEADAVALDGGLVYTAGVCGLVPVMAERYDDESQCSKTDERPASYFAVAVARKDSNVNWNNLKGKKSCHTAVGRTAGWVIPMGLIHNRTGTCNFDEYFSEGCAPGSPPNSRLCQLCQGSGGIPPEKCVASSHEKYFGYTGALRCLVEKGDVAFIQHSTVEENTGGKNKADWAKNLQMDDFELLCTDGRRANVMDYRECNLAEVPTHAVVVRPEKANKIRDLLERQEKRFGVNGSEKSKFMMFESQNKDLLFKDLTKCLFKVREGTTYKEFLGDKFYTVISSLKTCNPSDILQMCSFLEGK
modifications: iron-free
notes: substantially iron-free, from Sigma-Aldrich
Effect on planktonic growth rates [1]: Neither compound affected planktonic growth rates | Reduction of established biomass [2]: did not significantly reduce established biomass | Prevention of biofilm growth [3]: ineffective in preventing biofilm growth | Max. biofilm thickness [4, 5]: 32 μm | Substratum coverage [4, 5]: 11.8 ± 1.3% | Total biomass ([4]; Day 6, WT, additives to 1% TSB: 40 μg/ml conalbumin, 10 μM PCA or PYO): 0.80 ± 0.08 μm^3/μm^2 | Avg. thickness of biomass ([4]; Day 6, WT, calculated for the area covered by biomass, 40 μg/ml conalbumin, 10 μM PCA or PYO): 9.0 ± 0.7 μm | Biofilm formation with conalbumin (iron-free form) added ([4]; wild type, 1% TSB, 40 μg/ml conalbumin): neither strain formed biofilms
